Source: patent publication US20170336407A1

Columns and labels:
Test in all cases: cell-based or functional assay
[1] = biological target: Magnaporthe oryzea fungal pheromone GPCR (Magnaporthe oryzea)
[2] = biological target: T1, Lodderomyces elongisporous fungal pheromone GPCR (Lodderomyces elongisporous)
T1 sequence: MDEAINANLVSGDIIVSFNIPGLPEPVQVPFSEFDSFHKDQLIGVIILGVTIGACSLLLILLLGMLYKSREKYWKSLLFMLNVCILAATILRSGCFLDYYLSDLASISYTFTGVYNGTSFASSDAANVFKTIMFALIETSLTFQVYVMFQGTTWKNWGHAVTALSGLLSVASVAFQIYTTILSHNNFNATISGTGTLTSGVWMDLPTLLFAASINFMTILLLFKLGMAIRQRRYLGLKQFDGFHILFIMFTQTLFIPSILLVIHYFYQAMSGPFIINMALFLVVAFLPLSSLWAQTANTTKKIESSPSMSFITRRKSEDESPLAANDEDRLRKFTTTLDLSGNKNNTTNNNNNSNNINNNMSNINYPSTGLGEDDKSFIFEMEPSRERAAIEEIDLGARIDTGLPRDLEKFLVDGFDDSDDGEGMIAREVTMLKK

[3] = biological target: Paracoccidioides brasiliensis fungal pheromone GPCR (Paracoccidioides brasiliensis)
[4] = biological target: T2, Botrytis cinerea fungal pheromone GPCR (Botrytis cinerea)
T2 sequence: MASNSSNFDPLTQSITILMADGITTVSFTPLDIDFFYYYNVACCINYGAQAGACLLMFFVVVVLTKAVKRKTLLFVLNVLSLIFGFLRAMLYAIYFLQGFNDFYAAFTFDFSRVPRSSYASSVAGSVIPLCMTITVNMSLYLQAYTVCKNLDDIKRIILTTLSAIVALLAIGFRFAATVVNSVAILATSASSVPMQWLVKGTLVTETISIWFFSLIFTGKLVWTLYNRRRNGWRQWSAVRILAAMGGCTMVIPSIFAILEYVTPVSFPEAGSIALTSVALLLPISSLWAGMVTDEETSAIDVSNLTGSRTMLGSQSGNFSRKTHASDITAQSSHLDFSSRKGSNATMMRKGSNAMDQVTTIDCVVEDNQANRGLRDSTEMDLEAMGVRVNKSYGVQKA

[5] = biological target: T3, Candida albicans fungal pheromone GPCR (Candida albicans)
T3 sequence: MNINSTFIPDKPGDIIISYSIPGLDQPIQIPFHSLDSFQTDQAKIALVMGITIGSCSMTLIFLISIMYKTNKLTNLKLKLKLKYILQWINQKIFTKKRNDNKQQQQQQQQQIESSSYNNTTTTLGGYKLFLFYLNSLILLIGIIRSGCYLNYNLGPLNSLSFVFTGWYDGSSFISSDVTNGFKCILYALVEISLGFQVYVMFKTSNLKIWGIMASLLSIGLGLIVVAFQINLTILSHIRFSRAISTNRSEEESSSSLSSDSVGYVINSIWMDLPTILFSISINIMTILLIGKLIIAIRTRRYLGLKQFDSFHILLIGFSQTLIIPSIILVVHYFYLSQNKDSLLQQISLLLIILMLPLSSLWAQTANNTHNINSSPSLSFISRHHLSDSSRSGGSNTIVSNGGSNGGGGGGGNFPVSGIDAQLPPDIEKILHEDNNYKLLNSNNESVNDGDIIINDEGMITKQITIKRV

[6] = biological target: T4, Candida glabrata fungal pheromone GPCR (Candida glabrata)
T4 sequence: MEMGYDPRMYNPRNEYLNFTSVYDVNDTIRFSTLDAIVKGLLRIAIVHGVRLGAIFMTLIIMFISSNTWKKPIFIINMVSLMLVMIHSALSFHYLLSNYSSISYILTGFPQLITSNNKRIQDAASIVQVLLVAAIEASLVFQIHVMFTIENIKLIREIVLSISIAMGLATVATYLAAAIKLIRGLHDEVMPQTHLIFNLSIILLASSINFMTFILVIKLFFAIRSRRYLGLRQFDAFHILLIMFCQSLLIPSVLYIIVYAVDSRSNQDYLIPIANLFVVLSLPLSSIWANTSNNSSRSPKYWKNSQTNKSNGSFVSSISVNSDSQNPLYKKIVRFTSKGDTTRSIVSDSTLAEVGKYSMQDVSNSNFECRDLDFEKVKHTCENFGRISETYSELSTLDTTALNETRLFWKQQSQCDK

[7] = biological target: Fusarium graminearum fungal pheromone GPCR (Fusarium graminearum)
[8] = biological target: T5, Saccharomyces cerevisiae Ste2 pheromone receptor, wild type (Saccharomyces cerevisiae) (UniProt D6VTK4)
T5 sequence: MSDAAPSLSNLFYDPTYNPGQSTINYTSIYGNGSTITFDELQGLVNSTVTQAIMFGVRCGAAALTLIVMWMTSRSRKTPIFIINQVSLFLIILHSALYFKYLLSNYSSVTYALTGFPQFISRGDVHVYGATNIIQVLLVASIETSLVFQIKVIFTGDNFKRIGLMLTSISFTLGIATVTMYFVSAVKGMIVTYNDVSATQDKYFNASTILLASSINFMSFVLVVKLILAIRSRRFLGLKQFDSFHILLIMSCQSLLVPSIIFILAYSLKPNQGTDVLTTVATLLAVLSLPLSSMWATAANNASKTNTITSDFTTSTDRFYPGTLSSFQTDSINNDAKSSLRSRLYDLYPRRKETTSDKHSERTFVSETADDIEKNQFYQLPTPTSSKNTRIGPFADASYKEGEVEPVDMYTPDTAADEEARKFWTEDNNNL

Magnaporthe oryzea mating peptide pheromone […]
EC50 (fluorescent reporter) [1]: 5000 nM

Lodderomyces elongisporous mating peptide pheromone …
EC50 (biosensor strain, fluorescence) [2]: 51 nM

Paracoccidioides brasiliensis mating peptide […]
EC50 (biosensor strain, fluorescence) [3]: 34 nM | EC50 (fluorescent reporter) [3]: 9 nM

Botrytis cinerea mating peptide pheromone …
EC50 (fluorescent reporter) [4]: < 1 nM

Candida albicans mating peptide pheromone …
EC50 (biosensor strain, fluorescence) [5]: 4 nM | EC50 (fluorescent reporter) [5]: 51 nM

Candida glabrata mating peptide pheromone …
EC50 (biosensor strain, fluorescence) [6]: 3600 nM

Fusarium graminearum mating peptide pheromone […]
EC50 (fluorescent reporter) [7]: 230 nM

S. cerevisiae α-Factor, wild type, … (peptide)
EC50 (biosensor strain, fluorescence) [8]: 190 nM
